The text below walks through data of paper PMC11629678, “Hypoxia favors tumor growth in colorectal cancer in an integrin αDβ1/hemoglobin δ-dependent manner” (Life Science Alliance, 2024).

The data set deals with the molecule itself. The data set is described as follows: SDS-polyacrylamide gel electrophoresis and blot; recombinant His-tagged Hbδ and Hbβ (HbAo) on a 4-20% SDS gel and blotted; non-reducing conditions in the legend, reducing conditions in the text.

B1: recombinant Hbδ (natural protein)
chain: not shown
notes: hemoglobin subunit delta, recombinant, His-tagged (Origene); No catalogue number is printed; also called His-tagged recombinant Hbδ; source: bought: Origene
As for B1, the binding result is given as “binds”.
